Data as given in publication PMC12946505, “RrMYB2 Regulates Drought Stress via RrJMJ12‐Dependent Epigenetic Modification in Rosa rugosa”.

B1: Probe2 (dsDNA)
DNA 1: TTTCTCATGAACCCTCTGCTTTCTCATCTTGGGT
DNA 2: ACCCAAGATGAGAAAGCAGAGGGTTCATGAGAAA
B2: Probe4 (dsDNA)
DNA 1: ATGACCCCCTTTTGCTCTGCTCTGTCTTTCTAGT
DNA 2: ACTAGAAAGACAGAGCAGAGCAAAAGGGGGTCAT
B3: Probe3 (dsDNA)
DNA 1: GTCTTATTTTTCTCTGTTTTCTTTTTTGGTATT
DNA 2: AATACCAAAAAAGAAAACAGAGAAAAATAAGAC
B4: Probe5 (dsDNA)
DNA 1: TAATTAGGTATCTCTGCTCGAGTTCTTTTG
DNA 2: CAAAAGAACTCGAGCAGAGATACCTAATTA
B5: Probe1 (dsDNA)
DNA 1: CTCTCTCTCTCTCTCTCTCTGTTTGCGCCAAAACA
DNA 2: TGTTTTGGCGCAAACAGAGAGAGAGAGAGAGAGAG

What follows are binders tested against RrJMJ12-C (Rosa rugosa, UniProt A0A2P6P5A5 1371-1493) (assay: EMSA; unlabeled cold probe control; EMSA/Gel-Shift Kit (Beyotime) binding buffer, 30 min at 24 C; salt and pH not stated). Details: protein: recombinant; tags: GST (pGEX4T-1); label: biotin; blunt.
Chain of RrJMJ12-C (A0A2P6P5A5 entry or part of it): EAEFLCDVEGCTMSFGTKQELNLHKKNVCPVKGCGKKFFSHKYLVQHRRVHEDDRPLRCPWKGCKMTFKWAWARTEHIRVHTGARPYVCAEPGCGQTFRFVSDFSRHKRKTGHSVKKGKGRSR

Binding result, binds:
B1, B2, B3, B4, B5
